The text below walks through data of article doi:10.1101/485656 (bioRxiv, 2018).

Data set [1] has as its target FtsA (Escherichia coli) (UniProt P0ABH0). The data set is described as follows: MST.
The target of data set [2] is FtsZ/FtsA co-filaments on a supported lipid bilayer (Escherichia coli) (UniProt P0ABH0). The data set is described as follows: single-molecule tracking by TIRF on supported lipid bilayers.
The target is the same in data set [3]. The data set is described as follows: TIRF colocalisation on supported lipid bilayers.
The target of data set [4] is FtsA (Escherichia coli) (UniProt P0ABH0). The data set is described as follows: TIRF colocalisation on supported lipid bilayers.
The data set “AUC” concerns the molecule itself. The data set is described as follows: AUC.

Turning to FtsN_(cyto)His (peptide), the dissociation constant Kd in the data set with FtsA (Escherichia coli) [1] is 0.324 µM. In data set [2], this molecule came in with an average duration of confinement of 0.41 s; a frequency of confinement events, fold over the DDEE mutant of 3 fold; a weight of the population with short displacements, fold over FtsN (cyto-DDEE)His of 3 fold; a weighted contribution of the confined population, fold over FtsN (cyto-DDEE)His of 2 fold. In data set [3], this molecule had a Pearson correlation coefficient of colocalisation with FtsZ of 0.86 and a fold lower colocalization efficiency with GMPCPP against GTP of 1.5 fold. In the data set with FtsA (Escherichia coli) [4], this molecule yielded a Pearson correlation coefficient of colocalisation with FtsA of 0.8.
FtsN_(cyto-D5N)His (peptide) yielded a Kd with FtsA (Escherichia coli) [1] of 0.16 µM. The molecule further yielded a Pearson correlation coefficient of colocalisation with FtsZ in data set [3] of 0.75.
On to FtsQ_(cyto)His (peptide), for which, in data set [3], the Pearson correlation coefficient of colocalisation with FtsZ turned out to be 0.4.
Consider FtsZ (natural protein), for which the Pearson correlation coefficient of FtsA/FtsZ colocalisation in the data set with FtsA (Escherichia coli) [4] is 0.79.

B1: full-length FtsN with a C-terminal oligohistidine tag (natural protein, Escherichia coli, UniProt P29131 1-319, looked up)
chain: MAQRDYVRRSQPAPSRRKKSTSRKKQRNLPAVSPAMVAIAAAVLVTFIGGLYFITHHKKEESETLQSQKVTGNGLPPKPEERWRYIKELESRQPGVRAPTEPSAGGEVKTPEQLTPEQRQLLEQMQADMRQQPTQLVEVPWNEQTPEQRQQTLQRQRQAQQLAEQQRLAQQSRTTEQSWQQQTRTSQAAPVQAQPRQSKPASSQQPYQDLLQTPAHTTAQSKPQQAAPVARAADAPKPTAEKKDERRWMVQCGSFRGAEQAETVRAQLAFEGFDSKITTNNGWNRVVIGPVKGKENADSTLNRLKMAGHTNCIRLAAGG
On to B1, for which the binding result in “AUC” is on record as “binds”.

A word on the Kd: it is the constant that tells how readily two partners part at equilibrium. A high value points to lower affinity.
